Legend:
[1] = target: NbPI4KII-mGFP (Nicotiana benthamiana)
[2] = target: Capsicum annuum phosphatidylinositol 4-kinase type II (CaPI4KII), yeast two-hybrid fusion (Capsicum annuum)
[3] = target: NbPI4KII-mGFP (Nicotiana benthamiana); test: FRET or BRET; FRET in agroinfiltrated N. benthamiana leaf epidermal cells, 3 dpi; mGFP donor, DsRed acceptor; Olympus FluoView FV1000
[4] = target: NbPI4KII-mGFP (Nicotiana benthamiana); remark: listed apart in the source

Substance	percentage of cells in which NbPI4KII-mGFP was redirected into the nucleus when co-expressed with Rep181-361-DsRed (N = 17) [1]	percentage of cells with CaPI4KII-mGFP restricted to the nucleus when co-expressed with Rep181-361-DsRed [2]	FRET efficiency [3]	percentage of cells with NbPI4KII-mGFP exclusively inside the nucleus when co-expressed with Rep1-180-DsRed (N = 16) [1]	percentage of cells with CaPI4KII-mGFP restricted to the nucleus when co-expressed with Rep1-180-DsRed [2]	percentage of cells with NbPI4KII-mGFP only inside the nucleus when co-expressed with Rep-DsRed (N. benthamiana epidermis, N = 19) [4]
ChiLCV Rep181-361-DsRed (domain or fragment)	78%	41%	76%	–	–	–
ChiLCV Rep1-180-DsRed (domain or fragment)	–	–	43%	87%	61%	–
ChiLCV Rep-DsRed (natural protein)	–	–	47%	–	–	63%
ChiLCV Rep1-120-DsRed (domain or fragment)	–	–	72%	–	–	–

From publication PMC6792133
